B1: RSPH3 (parent)
chain: QRLEEQERRHREEKERRKKQQWEI
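Note: lentivirally expressed fusions sorted by FACS into six bins by GFP to DsRed ratio, PSI derived from sequencing read proportions per bin multiplied by bin number.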

This data set covers variants of B1. Briefly: protein stability index of a GFP-peptide fusion (GPS, HEK-293T) (PSI 1-6); higher = more stable. To be noted: c terminus: a fixed tail appended.
In the case of QGLEEQERRHREEKERRKKQQWEI [R2G], the protein stability index was 4.54.
In the case of QQLEEQERRHREEKERRKKQQWEI [R2Q], the protein stability index was found to be 4.94.
With QELEEQERRHREEKERRKKQQWEI [R2E], the protein stability index was 5.24.
As for QLLEEQERRHREEKERRKKQQWEI [R2L], the figure is 4.63; as for QNLEEQERRHREEKERRKKQQWEI [R2N], 5.06; as for QVLEEQERRHREEKERRKKQQWEI [R2V], 4.47.
Take QRLEEQELRHREEKERRKKQQWEI [R8L]: the protein stability index was 3.69.
As for QRLEEQEKRHREEKERRKKQQWEI [R8K], the figure is 4.33; as for QRLEEQEQRHREEKERRKKQQWEI [R8Q], 4.61; as for QRLEEQECRHREEKERRKKQQWEI [R8C], 3.71.
Regarding QRLEEQEYRHREEKERRKKQQWEI [R8Y], the protein stability index is 4.24.
QRLEEQEDRHREEKERRKKQQWEI [R8D]: the protein stability index came to 4.79.
Turning to QRLEEQEIRHREEKERRKKQQWEI [R8I], the protein stability index is 4.42.
On to QRLEEQEVRHREEKERRKKQQWEI [R8V], for which the protein stability index was found to be 5.02.
As to QRLEEQEERHREEKERRKKQQWEI [R8E], the protein stability index amounted to 4.95.
On to QRLEKQERRHREEKERRKKQQWEI [E5K], for which the protein stability index was found to be 3.39.
Consider QRLEWQERRHREEKERRKKQQWEI [E5W], for which the protein stability index was determined as 3.98.
As to QRLECQERRHREEKERRKKQQWEI [E5C], the protein stability index worked out at 4.38.
Consider QRLEFQERRHREEKERRKKQQWEI [E5F], for which the protein stability index was 3.61.
As for QRLETQERRHREEKERRKKQQWEI [E5T], the figure is 4.01.
As for QRLEGQERRHREEKERRKKQQWEI [E5G], the protein stability index amounted to 4.53.
As for QRLEEQERRHREEKERRKKQQWET [I24T], the protein stability index was 4.3.
QRLEEQERRHREEKERRKKQQWEP [I24P]: the protein stability index was 5.
Then QRLEEQERRHREEKERRKKQQWEH [I24H], with 4.46.
Take QRLEEQERRHREEKERRKKQQWEE [I24E]: the protein stability index was 5.04.
For the variant QRLEEQERKHREEKERRKKQQWEI [R9K], the protein stability index worked out at 4.21.
Then QRLEEQERSHREEKERRKKQQWEI [R9S], with 3.85; and QRLEEQERQHREEKERRKKQQWEI [R9Q], with 4.63.
As to QRLEEQERGHREEKERRKKQQWEI [R9G], the protein stability index amounted to 4.85.
QRLEEQERCHREEKERRKKQQWEI [R9C]: the protein stability index turned out to be 4.84.
In the case of QRLEEQERTHREEKERRKKQQWEI [R9T], the protein stability index is 4.51.
As to QRLEEQERDHREEKERRKKQQWEI [R9D], the protein stability index came out at 4.97.
For the variant QRLEEQERIHREEKERRKKQQWEI [R9I], the protein stability index was 4.4.
Regarding QRLEEQERMHREEKERRKKQQWEI [R9M], the protein stability index stood at 5.37.
Then QRLEEQEREHREEKERRKKQQWEI [R9E], with 4.49.
As for QRLEEQCRRHREEKERRKKQQWEI [E7C], the figure is 4.15; as for QRLEEQPRRHREEKERRKKQQWEI [E7P], 4.75.
On to QRLEEQWRRHREEKERRKKQQWEI [E7W], for which the protein stability index stood at 4.25.
QRLEEQKRRHREEKERRKKQQWEI [E7K]: the protein stability index stood at 4.36.
As to QRLEEQSRRHREEKERRKKQQWEI [E7S], the protein stability index is 3.88.
As for QRLEEQTRRHREEKERRKKQQWEI [E7T], the protein stability index was 4.95.
As to QRLEEQFRRHREEKERRKKQQWEI [E7F], the protein stability index was found to be 4.41.
Turning to QRLEEQERRHREEKPRRKKQQWEI [E15P], the protein stability index is 3.62.
With QRLEEQERRHREEKVRRKKQQWEI [E15V], the protein stability index was determined as 4.14.
As for QRLEEQERRHREEKWRRKKQQWEI [E15W], the figure is 3.18; as for QRLEEQERRHREEKNRRKKQQWEI [E15N], 5.12; as for QRLEEQERRHREEKYRRKKQQWEI [E15Y], 3.09.
For the variant QRLEEQERRHREEKDRRKKQQWEI [E15D], the protein stability index amounted to 4.68.
With QRLEEQERRHREEKHRRKKQQWEI [E15H], the protein stability index was 3.91.
With QRLEEQERRAREEKERRKKQQWEI [H10A], the protein stability index is 4.94.
Turning to QRLEEQERRPREEKERRKKQQWEI [H10P], the protein stability index was determined as 4.44.
Turning to QRLEEQERRYREEKERRKKQQWEI [H10Y], the protein stability index was 4.05.
For the variant QRLEEQERRTREEKERRKKQQWEI [H10T], the protein stability index is 4.79.
As for QRLEEQERRVREEKERRKKQQWEI [H10V], the figure is 4.45.
Turning to QRLEEQERRIREEKERRKKQQWEI [H10I], the protein stability index turned out to be 4.5.
For QRLEEQERRGREEKERRKKQQWEI [H10G], the protein stability index was determined as 4.51.
QRLEERERRHREEKERRKKQQWEI [Q6R]: the protein stability index came out at 4.42.
As for QRLEEVERRHREEKERRKKQQWEI [Q6V], the protein stability index was 4.85.
Then QRLEEEERRHREEKERRKKQQWEI [Q6E], with 4.91.
On to QRLEEPERRHREEKERRKKQQWEI [Q6P], for which the protein stability index was found to be 4.47.
Consider QRLEEYERRHREEKERRKKQQWEI [Q6Y], for which the protein stability index was 4.48.
As to QRLEEAERRHREEKERRKKQQWEI [Q6A], the protein stability index amounted to 4.9.
With QRLEEHERRHREEKERRKKQQWEI [Q6H], the protein stability index was 4.39.
In the case of QRLEESERRHREEKERRKKQQWEI [Q6S], the protein stability index is 4.82.
As for QRLEEFERRHREEKERRKKQQWEI [Q6F], the figure is 4.
QRLEEKERRHREEKERRKKQQWEI [Q6K]: the protein stability index amounted to 4.19.
QRLEECERRHREEKERRKKQQWEI [Q6C]: the protein stability index worked out at 4.63.
For the variant QRLEEQERRHREEKERRKKQQWGI [E23G], the protein stability index amounted to 4.46.
As for QRLEEQERRHREEKERRKKQQWWI [E23W], the figure is 3.67; as for QRLEEQERRHREEKERRKKQQWRI [E23R], 4.69; as for QRLEEQERRHREEKERRKKQQWVI [E23V], 3.18.
Turning to QRLEEQERRHREEKERRKKQQWCI [E23C], the protein stability index is 4.03.
Regarding QRLEEQERRHREEKERRKKQQWII [E23I], the protein stability index amounted to 3.6.
Consider QRLEEQERRHREEKERRKKQQWDI [E23D], for which the protein stability index stood at 4.91.
As for QRLEEQERRHREEKERRKKQQWSI [E23S], the figure is 3.9.
For QRLEEQERRHREEKERRKKQKWEI [Q21K], the protein stability index worked out at 4.71.
As for QRLEEQERRHREEKERRKKQSWEI [Q21S], the figure is 3.71; as for QRLEEQERRHREEKERRKKQWWEI [Q21W], 4.48; as for QRLEEQERRHREEKERRKKQIWEI [Q21I], 4.03.
As for QRLEEQERRHREEKERRKKQAWEI [Q21A], the figure is 4.43; as for QRLEEQERRHREEKERRKKQFWEI [Q21F], 4.46; as for QRLEEQERRHREEKERRKKQCWEI [Q21C], 4.17.
With QRLEEQERRHREEKERRKQQQWEI [K19Q], the protein stability index came out at 4.64.
Consider QRLEEQERRHREEKERRKGQQWEI [K19G], for which the protein stability index amounted to 4.33.
Turning to QRLEEQERRHREEKERRKWQQWEI [K19W], the protein stability index came out at 3.89.
Then QRLEEQERRHREEKERRKYQQWEI [K19Y], with 4.47; and QRLEEQERRHREEKERRKRQQWEI [K19R], with 4.78; and QRLEEQERRHREEKERRKCQQWEI [K19C], with 4.9.
With QRLEEQERRHREEKERRKEQQWEI [K19E], the protein stability index worked out at 4.98.
As to QRLEEQERRHREEKERRKDQQWEI [K19D], the protein stability index is 4.98.
Turning to QRLEEQERRHREIKERRKKQQWEI [E13I], the protein stability index worked out at 3.88.
Regarding QRLEEQERRHREHKERRKKQQWEI [E13H], the protein stability index was 4.19.
For QRLEEQERRHREYKERRKKQQWEI [E13Y], the protein stability index was 3.77.
As for QRLEEQERRHRETKERRKKQQWEI [E13T], the figure is 4.32.

The values are drawn from the supplement of paper PMC10567573.
